{"source": "paper PMC2765987", "about": "(2009)", "parents": {"B1": {"name": "FLAG-tagged PP6R3 (full-length, residues 1-873) [human] / PP6 catalytic subunit, endogenous [human (endogenous in HEK293, HeLa, HepG2, Jurkat)] (parent complex)", "chain 1": "MFWKFDLHSSSHIDTLLEREDVTLKELMDEEDVLQECKAQNRKLIEFLLKAECLEDLVSFIIEEPPQDMDEKIRYKYPNISCELLTSDVSQMNDRLGEDESLLMKLYSFLLNDSPLNPLLASFFSKVLSILISRKPEQIVDFLKKKHDFVDLIIKHIGTSAIMDLLLRLLTCIEPPQPRQDVLNWLNEEKIIQRLVEIVHPSQEEDRHSNASQSLCEIVRLSRDQMLQIQNSTEPDPLLATLEKQEIIEQLLSNIFHKEKNESAIVSAIQILLTLLETRRPTFEGHIEICPPGMSHSACSVNKSVLEAIRGRLGSFHELLLEPPKKSVMKTTWGVLDPPVGNTRLNVIRLISSLLQTNTSSINGDLMELNSIGVILNMFFKYTWNNFLHTQVEICIALILASPFENTENATITDQDSTGDNLLLKHLFQKCQLIERILEAWEMNEKKQAEGGRRHGYMGHLTRIANCIVHSTDKGPNSALVQQLIKDLPDEVRERWETFCTSSLGETNKRNTVDLVTTCHIHSSSDDEIDFKETGFSQDSSLQQAFSDYQMQQMTSNFIDQFGFNDEKFADQDDIGNVSFDRVSDINFTLNTNESGNIALFEACCKERIQQFDDGGSDEEDIWEEKHIAFTPESQRRSSSGSTDSEESTDSEEEDGAKQDLFEPSSANTEDKMEVDLSEPPNWSANFDVPMETTHGAPLDSVGSDVWSTEEPMPTKETGWASFSEFTSSLSTKDSLRSNSPVEMETSTEPMDPLTPSAAALAVQPEAAGSVAMEASSDGEEDAESTDKVTETVMNGGMKETLSLTVDAKTETAVFKSEEGKLSTSQDAACKDAEECPETAEAKCAAPRPPSSSPEQRTGQPSAPGDTSVNGPV", "chain 2": "MAPLDLDKYVEIARLCKYLPENDLKRLCDYVCDLLLEESNVQPVSTPVTVCGDIHGQFYDLCELFRTGGQVPDTNYIFMGDFVDRGYYSLETFTYLLALKAKWPDRITLLRGNHESRQITQVYGFYDECQTKYGNANAWRYCTKVFDMLTVAALIDEQILCVHGGLSPDIKTLDQIRTIERNQEIPHKGAFCDLVWSDPEDVDTWAISPRGAGWLFGAKVTNEFVHINNLKLICRAHQLVHEGYKFMFDEKLVTVWSAPNYCYRCGNIASIMVFKDVNTREPKLFRAVPDSERVIPPRTTTPYFL"}}}
{"variants_of": "B1", "assay": "co-immunoprecipitation (anti-FLAG) with quantitative fluorescent immunoblotting; expressed in HEK293 cells; endogenous PP6c; 3 independent experiments; parent: 100; read off a plot"}
{"variant": "chain 1 D113R", "percent of parent": "~91 PP6c / FLAG (wild type = 100)"}
{"variant": "chain 1 E204K, chain 1 E205K", "percent of parent": "~75 PP6c / FLAG (wild type = 100)"}
{"variant": "chain 1 E259K, chain 1 E262K", "percent of parent": "~64 PP6c / FLAG (wild type = 100)"}
